Results: publication PMC3216068

Biological target: SUMO1 (human) (UniProt P63165)
Assay: SPR; preliminary BiaCore analyses, done by Affina Biotechnologies as a paid service

Chain of UniProt P63165 (P63165 1-97): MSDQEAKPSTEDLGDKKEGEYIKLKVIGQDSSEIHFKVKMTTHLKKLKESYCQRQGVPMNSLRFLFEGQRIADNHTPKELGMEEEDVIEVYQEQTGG

## Ulp1(3)^(C580S) as used in the BiaCore analyses (from UniProt Q02724 341-621) (domain or fragment)
  Kd: 12.8 nM
